Residue numbers refer to the chain shown, from its start.

B1: SEQ ID NO:61 (protein)
chain: MADLYENPMGLMGFEFIEFASPTPGTLEPIFEIMGFTKVATHRSKNVHLYRQGEINLILNNEPNSIASYFAAEHGPSVCGMAFRVKDSQKAYNRALELGAQPIHIDTGPMELNLPAIKGIGGAPLYLIDRFGEGSSIYDIDFVYLEGVERNPVGAGLKVIDHLTHNVYRGRMVYWANFYEKLFNFREARYFDIKGEYTGLTSKAMSAPDGMIKIPLNEESSKGAGQIEEFLMQFNGEGIQHVAFLTDDLVKTWDALKKIGMRFLTAPGDEYYEMLEGRLPDHGEPVDQLQARGILLDGSSVEGDKRLLLQIFSEQLMGPVFFEFIQRKGDDGFGPDSFKVLFEQMERDQVRRGVLTAD
modifications: mutant HPPD polypeptide
B2: SEQ ID NO:13 (protein)
chain: B1 chain with K213R, L264M, Q315T, M345I
modifications: mutant HPPD polypeptide
B3: SEQ ID NO:22 (protein)
chain: B1 chain with K213R, L264M, Q315K, D336H, Q344S, M345I
modifications: mutant HPPD polypeptide
B4: SEQ ID NO:21 (protein)
chain: B1 chain with K213R, L264M, Q315T
modifications: mutant HPPD polypeptide
B5: SEQ ID NO:23 (protein)
chain: B1 chain with K213R, L264M, D336H, Q344S, M345I
modifications: mutant HPPD polypeptide
B6: SEQ ID NO:18 (protein)
chain: B1 chain with K213R, L264M, Q315K
modifications: mutant HPPD polypeptide
B7: SEQ ID NO:6 (protein)
chain: B1 chain with K213R, L264M, Q315T, Q344S, M345I
modifications: mutant HPPD polypeptide
B8: SEQ ID NO:20 (protein)
chain: B1 chain with K213R, L264M, Q315R
modifications: mutant HPPD polypeptide
B9: SEQ ID NO:4 (protein)
chain: B1 chain with K213R, L264M, Q344S, M345I
modifications: mutant HPPD polypeptide
B10: SEQ ID NO:5 (protein)
chain: B1 chain with K213R, L264M, Q315R, Q344S, M345I
modifications: mutant HPPD polypeptide
B11: SEQ ID NO:8 (protein)
chain: B1 chain with K213R, Q344S, M345I
modifications: mutant HPPD polypeptide
B12: SEQ ID NO:9 (protein)
chain: B1 chain with K213R, Q315T, Q344S, M345I
modifications: mutant HPPD polypeptide
B13: SEQ ID NO:7 (protein)
chain: B1 chain with K213R, Q315K, Q344S, M345I
modifications: mutant HPPD polypeptide
B14: SEQ ID NO:11 (protein)
chain: B1 chain with K213R, L264M, M345I
modifications: mutant HPPD polypeptide
B15: SEQ ID NO:14 (protein)
chain: B1 chain with K213R, L264M, Q315K, Q344S
modifications: mutant HPPD polypeptide
B16: SEQ ID NO:17 (protein)
chain: B1 chain with K213R, L264M, Q315T, Q344S
modifications: mutant HPPD polypeptide
B17: SEQ ID NO:16 (protein)
chain: B1 chain with K213R, L264M, Q315R, Q344S
modifications: mutant HPPD polypeptide
B18: SEQ ID NO:19 (protein)
chain: B1 chain with K213R, L264M
modifications: mutant HPPD polypeptide
B19: SEQ ID NO:12 (protein)
chain: B1 chain with K213R, L264M, Q315R, M345I
modifications: mutant HPPD polypeptide
B20: SEQ ID NO:15 (protein)
chain: B1 chain with K213R, L264M, Q344S
modifications: mutant HPPD polypeptide
B21: SEQ ID NO:10 (protein)
chain: B1 chain with K213R, L264M, Q315K, M345I
modifications: mutant HPPD polypeptide
B22: SEQ ID NO:3 (protein)
chain: B1 chain with K213R, L264M, Q315K, Q344S, M345I
modifications: mutant HPPD polypeptide

The test system of one data set is Pseudomonas fluorescens HPPD polypeptide (wild-type and mutants). As to the kind of experiment: Coupled HPPD activity assay: turnover and residual turnover in crude HPPD polypeptide extracts with and without Cmpd. 1. Type of data set: biochemical. To be noted: 100 μM Cmpd. 1, Table 3. As for the experimental part:
For the generation of crude HPPD polypeptide extract in micro titer plates (MTP) for the determination of residual activity in inhibition assays, cells were grown in 40 or 150 μl LB medium containing 1% Glucose (Merck, Darmstadt, Germany) and 100 μg/ml ampicillin in a standard 96 well plate (Thermo Fisher Scientific, Waltham, USA) incubated for about 18 h in a humidity incubator at 37° C. 30 μl of this starter culture were added to 600 μl LB medium containing 100 μg/ml ampicillin and 150 mM Hepes (Merck, Darmstadt, Germany) as inoculum for the expression culture in 96 well plates (2 ml deep wells; HJ Bioanalytik, Erkelenz, Germany). The plates were sealed by an aluminium foil, and cells were incubated for 5 h at 37° C. on a plate shaker at 750 rpm. The expression was induced by addition of IPTG in a final concentration of 1 mM followed by further sealed incubation for about 18 h at 30° C. on a plate shaker at 750 rpm.
Cells were harvested by centrifugation at 4° C., 2500 g for 15 min discarding the supernatant. Cell pellets were stored at −80° C. and lysed in 250 μl 1× BugBuster® (Merck, Darmstadt, Germany) in 140 mM Tris (pH 7.8), with 1:25000 diluted BNase® (Qiagen, Hilden, Germany) by incubation of the resuspended cells for 30 min at 4° C. and 1000 rpm. Lysates were clarified by centrifugation for 15 min at 4° C., 2500 g, and 150 μl supernatant were transferred in standard 96 well plate (Thermo Fisher Scientific, Waltham, USA) for subsequent testing in quadruplets.
The activity of HPPD polypeptides was determined in absence or presence of HPPD inhibitors using the coupled HPPD activity assay (FIG. 1).
For the determination of the residual activity, the apparent kinetic constant (kapp) of the determined substrate conversion was measured as kinetic changes in absorbance (OD) at 320 nm in a coupled assay, in that homogentisate (HGA) formed by HPPD from HPP is directly converted into the well absorbing molecule maleylacetoacetate (MAA) by a second enzyme homogentisate dioxygenase (HGD), applied in excess uniformly in all assays (see FIG. 1). The measurements were performed in 384 micro titer plates (Greiner Bio-One GmbH, Frickenhausen, Germany) by plate readers (Tecan infinite M1000 or M1000PRO, Tecan, Männedorf, Switzerland). The kcat/kM ratio of an enzymatic activity is proportional to the apparent kinetic constant kapp and is proportional to kcat/kM*[E] ([E]=enzyme concentration). […] As both kapp measurements in the presence and absence of inhibitor were performed by use of the identical enzyme sample, crude or purified, and thereby at the same enzyme concentration, the enzyme concentration eliminates from the calculation of residual activity and the ratio of both kapp directly indicates the change of kM due to the inhibition.
The assay solution used for determination of residual activities in raw HPPD polypeptide samples was composed by 200 mM sodium phosphate (Merck, Darmstadt, Germany, pH 7.0), 5 mM MgCl2 (Merck, Darmstadt, Germany), 20 mM ascorbate (Sigma-Aldrich, St. Louis, USA), 1 mM DTT (Sigma-Aldrich, St. Louis, USA), 0.1% Pluronic F-68 (Sigma-Aldrich, St. Louis, USA), 40 μM FeSO4 (Sigma-Aldrich, St. […] Louis, USA) and equilibrated for 20 min on ice.
For the molecule B1, the “turnover and residual turnover, comparison in words” value is “decreases the turnover and residual turnover”.

Staying with this data set, now noted: 100 μM Cmpd. 1, normalised to turnover without inhibitor.
B1: the “Residual turnover [%]” value is on record as 56%.

For B2, the “Residual turnover [%]” value is recorded as 38%.

Regarding B3, the “Residual turnover [%]” value worked out at 42%.

For the molecule B4, the “Residual turnover [%]” value was 38%.

B5: the “Residual turnover [%]” value is given as 48%.

As to B6, the “Residual turnover [%]” value is listed as 41%.

Consider B7, for which the “Residual turnover [%]” value is on record as 33%.

Take B8: the “Residual turnover [%]” value was found to be 49%.

As to B9, the “Residual turnover [%]” value stood at 50%.

Consider B10, for which the “Residual turnover [%]” value came to 44%.

For the molecule B11, the “Residual turnover [%]” value is recorded as 66%.

B12: the “Residual turnover [%]” value is on record as 65%.

Take B13: the “Residual turnover [%]” value is 59%.

For the molecule B14, the “Residual turnover [%]” value is 46%.

Consider B15, for which the “Residual turnover [%]” value came out at 40%.

Regarding B16, the “Residual turnover [%]” value came to 41%.

Turning to B17, the “Residual turnover [%]” value is 46%.

Regarding B18, the “Residual turnover [%]” value was determined as 40%.

B19: the “Residual turnover [%]” value is reported as 40%.

With B20, the “Residual turnover [%]” value turned out to be 39%.

Staying with this data set, now noted: absence of Cmpd. 1; changes in absorbance (OD) at 320 nm in the coupled assay, 30 min.
B1 registered a Turnover of 0.206.

B2: the Turnover is listed as 0.168.

In turn, B3 showed a Turnover of 0.259.

B4 came in with a Turnover of 0.214.

B5 gave a Turnover of 0.272.

The molecule B6 showed a Turnover of 0.221.

Molecule B7 displayed a Turnover of 0.159.

Molecule B8 showed a Turnover of 0.166.

For B9, the Turnover is given as 0.121.

As for B10, the Turnover was 0.162.

The molecule B11 had a Turnover of 0.124.

B12 gave a Turnover of 0.109.

Consider B13, for which the Turnover is 0.126.

As to B14, the Turnover was determined as 0.183.

As to B15, the Turnover is 0.18.

The molecule B16 returned a Turnover of 0.184.

B17 yielded a Turnover of 0.181.

With B21, the Turnover is reported as 0.018.

As to B18, the Turnover worked out at 0.218.

For B19, the Turnover worked out at 0.189.

B20 registered a Turnover of 0.161.

Regarding B22, the Turnover came to 0.013.

Still in this data set, the particulars now being: presence of 100 μM Cmpd. 1; changes in absorbance (OD) at 320 nm in the coupled assay, 30 min.
Turning to B1, the Residual turnover came to 0.116.

As to B2, the Residual turnover stood at 0.064.

On to B4, for which the Residual turnover came to 0.082.

As to B5, the Residual turnover was 0.131.

With B6, the Residual turnover is 0.091.

For the molecule B7, the Residual turnover is on record as 0.052.

Consider B8, for which the Residual turnover is reported as 0.082.

As to B9, the Residual turnover amounted to 0.06.

For B10, the Residual turnover is recorded as 0.071.

For the molecule B11, the Residual turnover is on record as 0.082.

Consider B12, for which the Residual turnover is 0.071.

Take B13: the Residual turnover turned out to be 0.074.

On to B14, for which the Residual turnover is 0.085.

In the case of B15, the Residual turnover is listed as 0.072.

For B16, the Residual turnover was found to be 0.075.

B17: the Residual turnover is 0.083.

Consider B21, for which the Residual turnover was found to be 0.021.

Consider B18, for which the Residual turnover is reported as 0.087.

For the molecule B19, the Residual turnover is 0.076.

B20: the Residual turnover stood at 0.062.

As for B22, the Residual turnover is 0.012.

These data come from patent US11371056B2, “HPPD variants and methods of use” (BASF Agricultural Solutions Seed US LLC, priority 2017, dated 2022).
